The values below are quoted from earlier work in article PMC2757091.

Targets include Chordin (UniProt Q9H2X0); Noggin (UniProt Q13253); Cerberus (UniProt O95813).

Chain of BMP4 (P12644 293-408): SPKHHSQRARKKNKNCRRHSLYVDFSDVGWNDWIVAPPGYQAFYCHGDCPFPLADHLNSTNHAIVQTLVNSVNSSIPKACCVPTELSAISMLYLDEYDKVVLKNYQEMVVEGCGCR
Chain of Chordin (Q9H2X0 27-955): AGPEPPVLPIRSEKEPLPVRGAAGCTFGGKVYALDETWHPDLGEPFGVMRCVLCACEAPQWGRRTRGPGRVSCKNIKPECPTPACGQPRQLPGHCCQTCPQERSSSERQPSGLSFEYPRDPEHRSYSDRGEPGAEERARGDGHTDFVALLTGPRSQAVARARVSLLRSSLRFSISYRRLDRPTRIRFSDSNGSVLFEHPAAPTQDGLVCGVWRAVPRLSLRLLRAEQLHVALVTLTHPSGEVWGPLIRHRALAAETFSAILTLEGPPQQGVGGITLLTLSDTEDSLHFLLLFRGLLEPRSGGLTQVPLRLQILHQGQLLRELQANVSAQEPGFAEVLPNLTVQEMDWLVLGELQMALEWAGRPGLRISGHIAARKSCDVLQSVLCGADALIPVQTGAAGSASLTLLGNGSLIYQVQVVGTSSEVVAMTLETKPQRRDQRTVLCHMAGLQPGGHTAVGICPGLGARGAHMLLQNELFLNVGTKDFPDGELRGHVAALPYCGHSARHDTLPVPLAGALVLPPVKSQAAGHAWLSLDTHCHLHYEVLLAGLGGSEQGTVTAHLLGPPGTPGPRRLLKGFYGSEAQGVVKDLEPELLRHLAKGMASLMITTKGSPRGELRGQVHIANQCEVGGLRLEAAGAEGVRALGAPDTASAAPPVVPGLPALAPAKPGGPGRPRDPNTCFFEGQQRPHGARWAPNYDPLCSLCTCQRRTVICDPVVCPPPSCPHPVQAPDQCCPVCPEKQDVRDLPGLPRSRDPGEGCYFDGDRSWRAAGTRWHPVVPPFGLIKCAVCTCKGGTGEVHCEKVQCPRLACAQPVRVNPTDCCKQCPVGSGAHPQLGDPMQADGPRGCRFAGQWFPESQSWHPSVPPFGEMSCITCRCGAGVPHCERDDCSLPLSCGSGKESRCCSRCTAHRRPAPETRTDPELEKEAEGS
Chain of Noggin (Q13253 28-232): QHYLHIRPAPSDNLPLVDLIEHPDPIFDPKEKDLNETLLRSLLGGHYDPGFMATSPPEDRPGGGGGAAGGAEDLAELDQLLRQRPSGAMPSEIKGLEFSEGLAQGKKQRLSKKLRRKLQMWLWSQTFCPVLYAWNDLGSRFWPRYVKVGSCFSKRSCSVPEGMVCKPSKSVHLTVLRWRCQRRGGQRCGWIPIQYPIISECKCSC
Chain of Cerberus (O95813 18-267): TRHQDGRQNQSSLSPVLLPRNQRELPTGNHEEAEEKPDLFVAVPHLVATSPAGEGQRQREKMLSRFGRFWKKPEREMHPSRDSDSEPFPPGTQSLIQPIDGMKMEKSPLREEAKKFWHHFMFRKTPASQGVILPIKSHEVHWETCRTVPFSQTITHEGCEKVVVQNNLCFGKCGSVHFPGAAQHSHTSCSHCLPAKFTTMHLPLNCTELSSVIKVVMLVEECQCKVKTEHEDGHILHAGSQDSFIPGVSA

On to BMP4 (from UniProt P12644), for which the Kd in the data set with Chordin is 0.2 nM; in the data set with Noggin it was 0.02 nM; in the data set with Cerberus, 0.6 nM.

As a reminder, the Kd is the concentration at which binding is half-saturated.
